# Laboratory results as given in article PMC10371251.
# Test system: FLAG-cGAS (Homo sapiens)
# Test: pull-down (streptavidin, Western blot; ligand transfected into HEK293T 2 h)
# Details: 5' or 3' position of biotin not stated, forward strand biotinylated, reverse unmodified, HEK293T transfected with 4 ug/mL biotin-ISD45 for 2 h, then streptavidin IP, IP buffer, pH and temperature not in the material (oligo annealing: 5 mM Tris pH 7.)
substance,measurement,setting,value
biotinylated ISD45,binding signal (fold of empty vector),WT SRC-HA coexpressed,0.466
same,binding signal (fold of empty vector),"empty vector, no SRC-HA, non-biotinylated ISD45 background 0.1436",1
